Experimental data published in article PMC12443421.
pKd: −log10 of the molar value. Where two headings read alike, the source gives them in different places. Blank lines part the entries; values can stand above or below the substance they belong to.

Assays:
[1] = target: acidic patch mutant (APM) H3K4me3 147 bp nucleosome (human) (UniProt P62807)
[2] = target: acidic patch mutant (APM) H3K4me3 147 bp nucleosome (human) (UniProt P62807); assay: native gel or EMSA; direct binding: 100 nM nucleosome and varying KDM5A; 50 mM HEPES pH 7.5, 50 mM KCl, 1 mM BME, 0.01% Tween-20, 0.01% BSA, 5% sucrose; 1 h on ice; gel at 4 C; SYBR gold; fit to specific binding with Hill slope
[3] = target: acidic patch mutant (APM) unmodified 147 bp nucleosome (H2A E61A, E64S, N68A, D72S, N89A, D90A, E91S) (human) (UniProt P62807); assay: as above
[4] = target: acidic patch mutant (APM) unmodified 147 bp nucleosome (H2A E61A, E64S, N68A, D72S, N89A, D90A, E91S), P62807;Q71DI3;P62805; assay: EMSA
[5] = target: KDM5A^CAT (lysine demethylase 5A, residues 1-801) (UniProt P29375); assay: EMSA

Chain of KDM5A^CAT (lysine demethylase 5A, residues 1-801) (from UniProt P29375 1-801) (domain or fragment) (P29375 1-801): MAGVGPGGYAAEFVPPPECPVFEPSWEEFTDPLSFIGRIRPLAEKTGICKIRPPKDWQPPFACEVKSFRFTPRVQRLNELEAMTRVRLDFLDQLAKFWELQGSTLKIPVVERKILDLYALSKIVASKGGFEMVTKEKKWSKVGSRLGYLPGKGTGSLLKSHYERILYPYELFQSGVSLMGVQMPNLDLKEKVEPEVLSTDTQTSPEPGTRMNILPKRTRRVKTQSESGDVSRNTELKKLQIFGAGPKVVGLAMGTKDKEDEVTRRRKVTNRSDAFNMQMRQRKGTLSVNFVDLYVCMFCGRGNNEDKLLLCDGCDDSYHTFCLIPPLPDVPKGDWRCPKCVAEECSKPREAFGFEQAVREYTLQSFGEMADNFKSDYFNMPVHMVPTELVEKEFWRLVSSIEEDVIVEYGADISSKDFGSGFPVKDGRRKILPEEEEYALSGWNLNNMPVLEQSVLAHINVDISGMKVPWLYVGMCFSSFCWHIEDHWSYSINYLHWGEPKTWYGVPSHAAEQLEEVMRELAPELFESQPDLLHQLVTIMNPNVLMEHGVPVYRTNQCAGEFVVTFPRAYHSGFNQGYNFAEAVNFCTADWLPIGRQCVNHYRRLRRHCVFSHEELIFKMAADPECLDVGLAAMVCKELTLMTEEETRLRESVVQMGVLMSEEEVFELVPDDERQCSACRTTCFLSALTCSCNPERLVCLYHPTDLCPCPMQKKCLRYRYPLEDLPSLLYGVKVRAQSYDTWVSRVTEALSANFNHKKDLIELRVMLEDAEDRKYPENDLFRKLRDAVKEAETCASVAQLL

fold decrease in demethylation of H3K4me3 on APM 147 bp nucleosomes relative to wild-type nucleosomes, quantitative western blot, single turnover (5 uM KDM5A enzyme, 50 nM substrate, 50 mM KCl) [1]: 9 fold | fold lower affinity relative to the wild-type H3K4me3 nucleosome [2]: 4 fold | fold loss in affinity relative to the wild-type 147 bp nucleosome [3]: 3 fold
Substance: KDM5A^CAT (lysine demethylase 5A, residues 1-801) (from UniProt P29375 1-801) (domain or fragment)

pKd [4]: 4.85 | pKd ([4]; 0-32 µM KDM5A^MutR titration): 4.85
Substance: KDM5A^CAT (lysine demethylase 5A, residues 1-801) (from UniProt P29375) R210A; R217A; R219A; R220A; R232A; R264A; R265A; R266A; R271A; R280A; R282A

pKd [4]: 4.82
Substance: KDM5A^CAT (lysine demethylase 5A, residues 1-801) (from UniProt P29375) R217A; R219A; R220A

pKd [4]: 5.00
Substance: KDM5A^CAT (lysine demethylase 5A, residues 1-801) (from UniProt P29375) R264A; R265A; R266A; R271A

pKd [4]: 4.92
Substance: KDM5A^CAT (lysine demethylase 5A, residues 1-801) (from UniProt P29375) R280A; R282A

pKd [5]: 4.92
Substance: wild-type unmodified 147 bp nucleosome (nucleosome core particle) (from UniProt P04908;P62807;Q71DI3;P62805) H2A:E61A; H2A:E64S; H2A:N68A; H2A:D72S; H2A:N89A; H2A:D90A; H2A:E91S
